This note sets out measurements from patent publication US20250163119A1, “COMPOUNDS FOR THE TREATMENT OF DIABETES OR OBESITY” (Eli Lilly and Company, priority 2023, published 2025).

Test in all cases: cell-based or functional assay
For assay [1], the target named is T1, human corticotropin-releasing hormone receptor 1 (CRHR1) (human, UniProt P34998 24-415).
T1 sequence (looked up): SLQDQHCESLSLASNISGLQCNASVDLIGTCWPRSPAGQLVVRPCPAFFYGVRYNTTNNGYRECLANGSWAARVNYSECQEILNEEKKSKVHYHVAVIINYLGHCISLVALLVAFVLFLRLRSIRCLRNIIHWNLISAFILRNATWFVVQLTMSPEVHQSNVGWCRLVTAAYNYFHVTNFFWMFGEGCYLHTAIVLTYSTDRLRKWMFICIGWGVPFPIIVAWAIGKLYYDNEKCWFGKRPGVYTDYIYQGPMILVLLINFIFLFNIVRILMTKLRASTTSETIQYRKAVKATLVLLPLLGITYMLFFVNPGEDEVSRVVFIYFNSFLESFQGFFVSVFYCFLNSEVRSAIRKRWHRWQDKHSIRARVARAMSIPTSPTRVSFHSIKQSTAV

Assay [2] deals with T1, human corticotropin-releasing hormone …. The source holds these as a separate data set.
Assay [3] concerns the target rat CRHR2 (endogenous on A7r5 cells) (rat, UniProt P47866 20-411).

*1 amine or outer side, *2 acyl side, *3 side chain or, on linkers, in order; H or OH if unused. Where no end group is shown, it is not given here. Side-chain parts run from the residue outwards. [ ]: non-standard residue; d: D form. The star is where a group is joined. C20 diacid = O=C(O)CCCCCCCCCCCCCCCCCCC(=O)*; γGlu = O=C(O)[C@H](CCC(=O)[*:2])N[*:1]; εLys = N[C@@H](CCCCN[*:1])C(=O)[*:2]; NMeI = CC[C@H](C)[C@H](NC)C(=O)O; αMeL = CC(C)C[C@](C)(N)C(=O)O; AEEA = NCCOCCOCC(=O)O; Aib = CC(C)(N)C(=O)O

Sequence of rat CRHR2 (endogenous on A7r5 cells) (P47866 20-411): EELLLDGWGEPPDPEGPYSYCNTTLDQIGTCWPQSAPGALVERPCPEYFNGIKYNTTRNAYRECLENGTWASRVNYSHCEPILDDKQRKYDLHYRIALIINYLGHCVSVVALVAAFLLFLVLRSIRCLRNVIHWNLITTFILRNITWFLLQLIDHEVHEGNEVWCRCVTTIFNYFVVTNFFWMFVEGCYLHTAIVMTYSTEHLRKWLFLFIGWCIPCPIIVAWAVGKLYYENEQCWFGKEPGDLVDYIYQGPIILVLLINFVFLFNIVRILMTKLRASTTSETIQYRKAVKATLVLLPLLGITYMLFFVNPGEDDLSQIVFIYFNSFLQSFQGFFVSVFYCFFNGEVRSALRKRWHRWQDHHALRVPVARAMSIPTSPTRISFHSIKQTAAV

With Ac-PPPIVTS[αMeL]D[dV]PT[Aib][αMeL]LQK[Aib]LEQERAEKARQQAK([γGlu-AEEA-εLys-C20 diacid])ENTEILAQV-NH2 [polypeptide comprising SEQ ID NO:46], in assay [1], the “hCRHR1 cAMP EC50” value was > 10000 nM. In addition, the “Y79 cAMP EC50” value in assay [2] worked out at 4000 nM. The “A7r5 cAMP EC50” value in assay [3] is 0.313 nM.

Consider [NMeI]VTSLDVPIG[αMeL]LQKLIEQEKQEKEKQQAKENTEILAQV-NH2 (not fully specified (residue 29)) [polypeptide comprising SEQ ID NO:49], for which the “hCRHR1 cAMP EC50” value in assay [1] is > 10000 nM. Besides, the “Y79 cAMP EC50” value in assay [2] was > 10000 nM. Besides, the “A7r5 cAMP EC50” value in assay [3] stood at 0.137 nM.

B1: polypeptide comprising SEQ ID NO:25 (peptide)
peptide: [γGlu]GSPSIVTS[αMeL]DVPT[Aib][αMeL]LQKILEQERAEKARQQATEAAEILAQV-NH2
modifications: not fully specified (residue 1, N-terminus); also: Glu1 linked through its gamma-carboxyl to Gly2
For the molecule B1, the “hCRHR1 cAMP EC50” value in assay [1] was > 10000 nM. Also, the “Y79 cAMP EC50” value in assay [2] amounted to 620 nM. Moreover, the “A7r5 cAMP EC50” value in assay [3] is 0.112 nM.

Regarding Ac-PPPIVTS[αMeL]DVPT[Aib][αMeL]LQKLLEQERAEKARQQAK([γGlu-AEEA-εLys-C20 diacid])EAAEILAQV-NH2 [polypeptide comprising SEQ ID NO:48], in assay [1], the “hCRHR1 cAMP EC50” value was > 10000 nM. Further, the “Y79 cAMP EC50” value in assay [2] was 4500 nM. Further, the “A7r5 cAMP EC50” value in assay [3] came out at 1.16 nM.

Take Ac-PPPIVTS[αMeL]D[dV]PT[Aib][αMeL]LQKLLEQERAEKARQQAK([γGlu-AEEA-εLys-C20 diacid])EAAEILAQV-NH2 [polypeptide comprising SEQ ID NO:47]: the “hCRHR1 cAMP EC50” value in assay [1] came out at 2300 nM. Further, the “Y79 cAMP EC50” value in assay [2] was 720 nM. Also, the “A7r5 cAMP EC50” value in assay [3] stood at 1.06 nM.

Turning to Ac-IVTS[αMeL]D[dV]PTG[αMeL]LQIKLEQERAEKARQQAKENTEILAQV-NH2 (not fully specified (residue 29)) [polypeptide comprising SEQ ID NO:29], the “hCRHR1 cAMP EC50” value in assay [1] was > 10000 nM. For the same molecule, the “Y79 cAMP EC50” value in assay [2] turned out to be 1000 nM. Besides, the “A7r5 cAMP EC50” value in assay [3] is 0.123 nM.
